Laboratory results as given in patent US20170334985A1 (Genentech, published 2017).
Numbering of substitutions follows the chain as printed. Blank lines part the entries; values can stand above or below the binder they belong to.

What was measured:
human IL-13 = target: T1, human IL-13 (human, UniProt P35225 35-146, limits assumed); experiment: SPR (BIAcore T200), antibody captured by anti-human Fc on CM5 chip, cytokine injected, 25 C, 1:1 Langmuir model
T1 construct: also called recombinant human IL-13
T1 sequence (P35225 other isoform, or with tags, fused parts or gaps limits assumed): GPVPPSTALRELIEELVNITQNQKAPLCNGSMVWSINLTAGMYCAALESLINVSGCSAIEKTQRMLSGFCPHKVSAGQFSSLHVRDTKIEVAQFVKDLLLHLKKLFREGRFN
Method: (§1) Binding affinities of the anti-IL-17/anti-IL-13 bispecific antibody against human and cynomolgus monkey IL-13 cytokines were measured with a BIAcore™-T200 instrument. Anti-IL-13 antibody was captured by mouse anti-human Fc antibody (GE Healthcare, cat #BR-1008-39) coated on CM5 biosensor chips to achieve approximately 500 response units (RU). Four-fold serial dilutions (50 nM to 49 pM) of human IL-13, human IL-13R130Q (a common IL-13 variant associated with allergy and asthma, see Vladich et al., 2005, J. Clin Invest., 115:747-754), and cyno IL-13 were injected in FIBS-P buffer (GE Healthcare) at 25° C. with a flow rate of 30 μl/min. Association rates (kₒₙ) and dissociation rates (koff) were calculated using a simple one-to-one Langmuir binding model (BIAcore T200 Evaluation Software version 2.0). The equilibrium dissociation constant (KD) was calculated as the ratio koff/kₒₙ.

human IL-13 R130Q = target: T2, human IL-13 R130Q (human, UniProt P35225 35-146, limits assumed); experiment: as above
T2 construct: Common IL-13 variant
T2 sequence (P35225 35-146 limits assumed, stated change not applied): as the sequence (P35225 other isoform, or with tags, fused parts or gaps limits assumed) above, with R110Q counted along it
Method: as §1

cynomolgus monkey IL-13 = target: T3, cynomolgus monkey IL-13 (cynomolgus monkey, UniProt Q5I6E4 19-132 (Macaca thibetana entry), limits assumed); experiment: as above
T3 construct: also called cyno IL-13
T3 chain: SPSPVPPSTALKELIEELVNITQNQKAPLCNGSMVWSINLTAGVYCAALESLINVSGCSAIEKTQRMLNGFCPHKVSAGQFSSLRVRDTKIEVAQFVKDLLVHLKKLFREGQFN
Method: as §1

human IL-17AA = target: T4, human IL-17AA (human, UniProt Q16552 20-155, limits assumed); experiment: SPR (BIAcore T200), bispecific antibody captured by anti-human Fc on CM5 chip, cytokine injected, 25 C, 1:1 Langmuir model
T4 construct: Bought from R&D Systems, cat #317-ILB-050; also called IL-17A homodimer
T4 sequence: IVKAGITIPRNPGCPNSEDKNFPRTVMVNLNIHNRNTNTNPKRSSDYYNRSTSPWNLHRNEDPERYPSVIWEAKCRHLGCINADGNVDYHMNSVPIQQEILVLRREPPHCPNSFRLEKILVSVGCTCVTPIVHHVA
Method: (§2) Binding affinities of anti-IL-17/anti-IL-13 bispecific antibody against various IL-17 cytokines were measured by Surface Plasmon Resonance (SRP) using a BIAcore™-T200 instrument. Anti-IL-17/anti-IL-13 bispecific antibody was captured by mouse anti-human Fc antibody (GE Healthcare, cat #BR-1008-39) coated on CM5 biosensor chips to achieve approximately 500 response units (RU). For kinetics measurements, five-fold serial dilutions (20 nM to 32 pM) of human IL-17AA (R&D Systems, cat #317-ILB-050), human IL-17AF heterodimer, human IL-17FF (R&D Systems, cat #1335-IL-025/CF), cyno IL-17AA, cyno IL-17AF, and cyno IL-17FF were injected in HBS-P buffer (GE Healthcare) at 25° C. with a flow rate of 30 μl/min. Association rates (kₒₙ) and dissociation rates (koff) were calculated using a simple one-to-one Langmuir binding model (BlAcore T200 Evaluation Software version 2.0). The equilibrium dissociation constant (KD) was calculated as the ratio koff/kₒₙ.

cyno IL-17AA = target: T5, cyno IL-17AA (cynomolgus monkey, UniProt A0A2K5TTB0 24-155); experiment: as above
T5 construct: Recombinant protein in the SPR assay; also called cynomolgus monkey IL-17AA; IL-17A homodimer (cynomolgus monkey)
T5 sequence: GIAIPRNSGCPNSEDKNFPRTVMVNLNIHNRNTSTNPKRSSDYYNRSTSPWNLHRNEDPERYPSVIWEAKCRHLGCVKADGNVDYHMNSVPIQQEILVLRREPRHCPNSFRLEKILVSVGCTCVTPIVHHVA
Method: as §2

[1] = target: T6, human IL-17AF heterodimer (human, UniProt Q16552 24-155; Q96PD4 31-163, limits assumed); experiment: cell-based or functional assay
T6 sequence 1: T5 sequence with A3T, S8P, S34N, V77I, K78N, R104P
T6 sequence 2: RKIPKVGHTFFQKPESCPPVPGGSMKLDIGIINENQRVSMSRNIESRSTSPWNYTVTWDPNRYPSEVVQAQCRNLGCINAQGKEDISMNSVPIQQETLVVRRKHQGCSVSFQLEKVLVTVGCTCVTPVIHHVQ

human IL-17FF = target: T7, human IL-17FF (human, UniProt Q96PD4 31-163); experiment: cell-based or functional assay
T7 sequence: T6 sequence 2

Kd (human IL-13): 0.0355 nM
koff (human IL-13): 2.07e-05 s⁻¹
kon (human IL-13): 584000 M⁻¹ s⁻¹
Kd (human IL-13 R130Q): < 0.001 nM
koff (human IL-13 R130Q): < 1e-06 s⁻¹
kon (human IL-13 R130Q): 864000 M⁻¹ s⁻¹
Kd (cynomolgus monkey IL-13): < 0.001 nM
koff (cynomolgus monkey IL-13): < 1e-06 s⁻¹
kon (cynomolgus monkey IL-13): > 1e+06 M⁻¹ s⁻¹
Kd (human IL-17AA): 0.021 nM
koff (human IL-17AA): 0.000118 s⁻¹
kon (human IL-17AA): 5.55e+06 M⁻¹ s⁻¹
Kd (cyno IL-17AA): 0.033 nM
koff (cyno IL-17AA): 0.000291 s⁻¹
kon (cyno IL-17AA): 8.89e+06 M⁻¹ s⁻¹
B1: anti-IL-13/IL-17 bispecific antibody (bispecific antibody, human IgG4 S228P)
heavy 1: not shown
VL 1: DIVLTQSPDSLSVSLGERATINCRASKSVDSYGNSFMHWYQQKPGQPPKLLIYLASNLESGVPDRFSGSGSGTDFTLTISSLQAEDVAVYYCQQNNEDPRTFGGGTKVEIKR
heavy 2: EVQLVESGGGLVQPGRSLRLSCAASGFTFDDYAMHWVRQAPGKGLEWVSGINWSSGGIGYADSVKGRFTISRDNAKNSLYLQMNSLRAEDTALYYCARDIGGFGEFYWNFGLWGRGTLVTVSSASTKGPSVFPLAPCSRSTSESTAALGCLVKDYFPEPVTVSWNSGALTSGVHTFPAVLQSSGLYSLSSVVTVPSSSLGTKTYTCNVDHKPSNTKVDKRVESKYGPPCPPCPAPEFLGGPSVFLFPPKPKDTLMISRTPEVTCVVVDVSQEDPEVQFNWYVDGVEVHNAKTKPREEQFNSTYRVVSVLTVLHQDWLNGKEYKCKVSNKGLPSSIEKTISKAKGQPREPQVYTLPPSQEEMTKNQVSLSCAVKGFYPSDIAVEWESNGQPENNYKTTPPVLDSDGSFFLVSRLTVDKSRWQEGNVFSCSVMHEALHNHYTQKSLSLSLGK
VL 2: not shown
notes: Knobs-into-holes human IgG4; also called anti-IL-17/anti-IL-13 bispecific antibody; anti-IL-13/IL-17 IgG4 bispecific antibody

IC90 (molar ratio), inhibition of IL-17AF-induced G-CSF expression in normal human foreskin fibroblasts (ELISA) [1]: ~1 molar ratio
IC90 (molar ratio), inhibition of IL-17FF-induced G-CSF expression in normal human foreskin fibroblasts (ELISA) (human IL-17FF): ~1 molar ratio
B2: Parental anti-IL17 antibody (antibody, V domains shown)
VH: EVQLVESGGGLVQPGRSLRLSCAASGFTFDDYAMHWVRQAPGKGLEWVSGINWSSGGIGYADSVKGRFTISRDNAKNSLYLQMNSLRAEDTALYYCARDIGGFGEFYWNFGLWGRGTLVTVSS
VL: not shown
